Measured values taken from article PMC3781949 (Molecular microbiology, 2011).

Biological target: the molecule itself
Assay: SPR

B1: Maf-His6, purified recombinant Maf (natural protein, B. subtilis, UniProt Q02169 1-189, looked up)
chain: MTKPLILASQSPRRKELLDLLQLPYSIIVSEVEEKLNRNFSPEENVQWLAKQKAKAVADLHPHAIVIGADTMVCLDGECLGKPQDQEEAASMLRRLSGRSHSVITAVSIQAENHSETFYDKTEVAFWSLSEEEIWTYIETKEPMDKAGAYGIQGRGALFVKKIDGDYYSVMGLPISKTMRALRHFDIRA
- binding result: binds
